Data reported in article PMC11839890 (European Journal of Nuclear Medicine and Molecular Imaging, 2024).
Read-outs that look alike come from different tables or passages of the source. Non-standard residues stand in square brackets, D forms with d. *: point of attachment. DOTA = O=C(O)CN1CCN(CC(=O)O)CCN(CC(=O)*)CCN(CC(=O)O)CC1

Legend:
human CCK2R = biological target: T1, human CCK2R (Homo sapiens, UniProt P32239); test: Saturation binding on A431-CCK2R cells; details: 4°C, read-out: dissociation constant (Kd)
T1 construct: expressed in transfected cells; host or cells: A431 human epidermoid carcinoma cells, stably transfected (plasmid pCR3.1), provided by Dr. Luigi Aloj
T1 sequence (P32239 1-447): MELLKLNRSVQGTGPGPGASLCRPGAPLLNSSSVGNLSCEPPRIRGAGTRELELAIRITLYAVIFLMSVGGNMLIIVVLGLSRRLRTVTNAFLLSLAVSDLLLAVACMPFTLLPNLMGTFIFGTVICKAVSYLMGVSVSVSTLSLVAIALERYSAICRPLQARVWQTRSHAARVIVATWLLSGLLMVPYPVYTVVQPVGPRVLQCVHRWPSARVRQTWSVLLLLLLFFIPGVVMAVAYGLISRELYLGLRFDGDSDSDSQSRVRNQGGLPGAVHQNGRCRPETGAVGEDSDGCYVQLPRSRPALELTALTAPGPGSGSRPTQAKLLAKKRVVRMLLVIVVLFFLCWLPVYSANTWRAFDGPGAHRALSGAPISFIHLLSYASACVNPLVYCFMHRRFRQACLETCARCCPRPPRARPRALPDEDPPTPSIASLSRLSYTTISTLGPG
Method: The saturation binding assay was performed on A431-CCK2R cells plated 2 days prior to the assay at a density of 1×10^6 cells per well in 6-well plates. […] Before recovering the cell-associated radioactivity from the wells by using 1 M NaOH (two times), cells were washed twice with ice-cold phosphate-buffered saline (PBS). The radioactivity was then counted using a gamma counter (2480 Wizard2 3”, PerkinElmer Life Sciences and Analytical Instruments, formerly Wallac Oy, Turku, Finland) and non-specific binding was subtracted. For normalization to the number of cells, cells from three different wells were trypsinized and counted by Beckman Coulter Vi-CELL AS cell viability analyser (Beckman Coulter, Fullerton, CA, USA). Three independent assays were performed in triplicate. Binding curves were analysed using GraphPad Prism version 10.1.2 for Windows (GraphPad Software, Boston, Massachusetts USA).

A431-CCK2R xenografts = test: Biodistribution up to 7 days p.i. / preclinical pharmacokinetics in A431-CCK2R xenografted BALB/c nude mice; type: in vivo; details: mouse, in vivo
Method: (§1) The study was approved by the Dutch animal ethics committee (CCD) of the Radboud University and the Nijmegen Medical Centre animal ethics committee (RUDEC) (2020–0007–020). Mice were inoculated with A431-CCK2R cells (2 × 10^6 in 200 μL DMEM medium) at an age of 8–10 weeks. […] Samples were collected, weighted and measured in a gamma counter together with a 1% standard of the injected dose. Results were expressed as percentage of injected activity per gram of tissue (%IA/g), and tumour-to-organ activity ratios were calculated for selected organs. The biodistribution data were used to calculate the kinetics in mouse organs and A431-CCK2R xenografts. A detailed description of the dosimetry calculations and extrapolation from mice to humans can be found in the Supplementary Materials. A one-compartment distribution model was used to characterize the time-activity curves, which were fitted with a single-exponential function implementing Graphpad Prism software. […] Animal dosimetry was performed using the RADAR mouse phantom. The mouse phantom organ weights were used to translate the time-integrated activity concentration coefficients [TIAC] into the regular TIAC. The absorbed dose per given activity was calculated using the MIRD equation (medical internal radiation dose) and the S values obtained from the 25 g RADAR mouse phantom.

[1] = as above; type: in vivo; details: female, mouse, iv, total radioactivity
Method: as §1

in vivo = details: mouse; for tissue uptake at 4 h: BALB/c nude (athymic), total radioactivity, uptake in A431-CCK2R xenografts
Method: Biodistribution studies were performed in female athymic BALB/c nude mice (Charles River Laboratories, Sulzfeld, Germany) with A431-CCK2R xenografts induced and animals treated as described previously. The study was approved by the Austrian Ministry of Science (2022–0.351.553). […] Statistical analysis was performed on the data sets using the unpaired two-tailed t-test with a significance level of 0.05.

tumour = details: in vivo; cited from earlier work
A431-CCK2R cells = details: cited from earlier work; for Bmax: A431-CCK2R cells, nM printed only with the first value of the sentence; for Kd: same cell line (A431-CCK2R), nM printed only with the PP-F11N value
[2] = BALB/c nude (athymic), in vivo, 20 pmol of peptide, Uptake, A431-CCK2R tumour
[3] = BALB/c nude (athymic), in vivo, 20 pmol of peptide, Uptake, blood
[4] = BALB/c nude (athymic), in vivo, 20 pmol of peptide, Uptake, heart
[5] = BALB/c nude (athymic), in vivo, 20 pmol of peptide, Uptake, kidney
[6] = BALB/c nude (athymic), in vivo, 20 pmol of peptide, Uptake, liver
[7] = BALB/c nude (athymic), in vivo, 20 pmol of peptide, Uptake, lung
[8] = BALB/c nude (athymic), in vivo, 20 pmol of peptide, Uptake, pancreas
[9] = BALB/c nude (athymic), in vivo, 20 pmol of peptide, Uptake, stomach
[10] = athymic BALB/c nude, in vivo, Uptake, femur
[11] = athymic BALB/c nude, in vivo, Uptake, heart
[12] = athymic BALB/c nude, in vivo, Uptake, intestine
[13] = athymic BALB/c nude, in vivo, Uptake, muscle
[14] = athymic BALB/c nude, in vivo, Uptake, spleen

CCCC[C@@H](C(=O)N[C@@H](CC(=O)O)C(=O)N[C@@H](Cc1cccc2ccccc12)C(N)=O)N(C)C(=O)[C@H](Cc1c[nH]c2ccccc12)NC(=O)CNC(=O)[C@H](Cc1ccc(O)cc1)NC(=O)[C@H](C)NC(=O)[C@@H](CCC(=O)O)NC(=O)CN1CCN(CC(=O)O)CCN(CC(=O)O)CCN(CC(=O)O)CC1 [[^177Lu]Lu-DOTA-MGS5, metal not drawn]
Kd (human CCK2R): 5.25 ± 1.61 nM
Uptake, blood (A431-CCK2R xenografts; female, BALB/c nude (athymic), iv, 20 pmol of peptide, 24 h): 0.013±0.002 %IA/g
half-life of blood clearance (A431-CCK2R xenografts; female, athymic BALB/c nude): 2.8 h
biological half-life of clearance from the tumour (A431-CCK2R xenografts): 18.2 h
tissue uptake at 1 h ([1]; BALB/c nude (athymic), A431-CCK2R tumour xenograft, 20 pmol of peptide, A431-CCK2R xenograft, 1h p.i., i.v., n = 5, read-out: Uptake, A431-CCK2R tumour): 68.1 ± 10 %ID/g
tissue uptake at 24 h [1, 2]: 28.9 ± 7.2 %ID/g
tissue uptake at 72 h [1, 2]: 12.6 ± 0.3 %ID/g
tissue uptake at 168 h [1, 2]: 2 ± 0.5 %ID/g
tissue uptake at 1 h [1, 3]: 1.9 ± 0.4 %ID/g
tissue uptake at 24 h [1, 3]: 0.01 ± 0.002 %ID/g
tissue uptake at 72 h [1, 3]: 0.004 ± 0.002 %ID/g
tissue uptake at 168 h [1, 3]: 0.01 ± 0.01 %ID/g
tissue uptake at 1 h [1, 4]: 0.8 ± 0.2 %ID/g
tissue uptake at 24 h [1, 4]: 0.05 ± 0.01 %ID/g
tissue uptake at 1 h [1, 5]: 3.7 ± 0.4 %ID/g
tissue uptake at 24 h [1, 5]: 2 ± 0.2 %ID/g
tissue uptake at 72 h [1, 5]: 1 ± 0.1 %ID/g
tissue uptake at 168 h [1, 5]: 0.4 ± 0.1 %ID/g
tissue uptake at 1 h [1, 6]: 1.3 ± 0.2 %ID/g
tissue uptake at 24 h [1, 6]: 0.5 ± 0.1 %ID/g
tissue uptake at 72 h [1, 6]: 0.2 ± 0.1 %ID/g
tissue uptake at 168 h [1, 6]: 0.08 ± 0.01 %ID/g
tissue uptake at 1 h [1, 7]: 4.6 ± 1.9 %ID/g
tissue uptake at 24 h [1, 7]: 0.2 ± 0.1 %ID/g
tissue uptake at 72 h [1, 7]: 0.1 ± 0.04 %ID/g
tissue uptake at 168 h [1, 7]: 0.04 ± 0.01 %ID/g
tissue uptake at 1 h [1, 8]: 1.7 ± 0.5 %ID/g
tissue uptake at 24 h [1, 8]: 0.9 ± 0.2 %ID/g
tissue uptake at 72 h [1, 8]: 0.7 ± 0.2 %ID/g
tissue uptake at 168 h [1, 8]: 0.6 ± 0.1 %ID/g
tissue uptake at 1 h [1, 9]: 8.1 ± 0.9 %ID/g
tissue uptake at 24 h [1, 9]: 4.9 ± 0.4 %ID/g
tissue uptake at 168 h [1, 9]: 1.3 ± 0.1 %ID/g
tissue uptake at 1 h [1, 10]: 0.3 ± 0.1 %ID/g
tissue uptake at 24 h [1, 10]: 0.052 ± 0.008 %ID/g
tissue uptake at 72 h [1, 10]: 0.032 ± 0.007 %ID/g
tissue uptake at 168 h [1, 10]: 0.06 ± 0.02 %ID/g
tissue uptake at 72 h [1, 11]: 0.026 ± 0.005 %ID/g
tissue uptake at 168 h [1, 11]: 0.018 ± 0.004 %ID/g
tissue uptake at 1 h [1, 12]: 1.1 ± 0.3 %ID/g
tissue uptake at 24 h [1, 12]: 0.17 ± 0.02 %ID/g
tissue uptake at 72 h [1, 12]: 0.1 ± 0.01 %ID/g
tissue uptake at 168 h [1, 12]: 0.04 ± 0.01 %ID/g
tissue uptake at 1 h [1, 13]: 0.3 ± 0.2 %ID/g
tissue uptake at 24 h [1, 13]: 0.04 ± 0.01 %ID/g
tissue uptake at 72 h [1, 13]: 0.01 ± 0.003 %ID/g
tissue uptake at 168 h [1, 13]: 0.018 ± 0.005 %ID/g
tissue uptake at 1 h [1, 14]: 0.6 ± 0.1 %ID/g
tissue uptake at 168 h [1, 14]: 0.09 ± 0.01 %ID/g
tissue uptake at 4 h (in vivo): 22.9 ± 4.7 %ID/g
tissue uptake at 4 h (in vivo; female, iv, 20 pmol peptide): 31.9 ± 12.8 %ID/g
tissue uptake (in vivo; female, athymic BALB/c nude, tumour uptake): ~23 %ID/g

[^111In]In-DOTA-MG11: 111In-labelled DOTA-MG11 (DOTA-DGlu-Ala-Tyr-Gly-Trp-Met-Asp-Phe-NH2) ({DOTA}-[dE]AYGWMDF-NH2; also: 111In complexed by DOTA)
tumour uptake (tumour): 2–3 % ID/g

[^111In]In-DOTA-PP-F11: 111In-labelled DOTA-(DGlu)6-Ala-Tyr-Gly-Trp-Met-Asp-Phe-NH2 (AYGWMDF; 111In-DOTA-(DGlu)6, C-terminal amide; printed: Ala-Tyr-Gly-Trp-Met-Asp-Phe-)
Bmax (A431-CCK2R cells): 1.21 ± 0.06 nM
Kd (A431-CCK2R cells): 15.9 ± 2.2 nM

[^177Lu]Lu-DOTA-PP-F11: 177Lu-labelled DOTA-(DGlu)6-Ala-Tyr-Gly-Trp-Met-Asp-Phe-NH2 (AYGWMDF; 177Lu-DOTA-(DGlu)6, C-terminal amide; printed: Ala-Tyr-Gly-Trp-Met-Asp-Phe-)
Bmax (A431-CCK2R cells): 0.65 ± 0.06 nM
Kd (A431-CCK2R cells): 41.7 ± 9.7 nM
